US20220228164A1, “ENGINEERED ANTIGEN PRESENTING CELLS” (Neogene Therapeutics B.V., priority 2021, published 2022)

Experiments:
[1] = system: NY-ESO 1G4 TCR transduced Jurkat cells; assay: TMG-expressing BCL-6/BCL-xL B cells with or without CD40L, co-culture with TCR Jurkat cells, CD69 (Example 7); type: cell-based, human; settings: BCL-6/BCL-xL immortalized B cells, two donors, 20 hours
Experimental: (§1) B cells from two healthy donors are isolated and immortalized by transduction with BCL-6/BCL-xL as described in Example 5 and 10 of this invention. In this Example, B cells are either transduced with BCL-6/BCL-xL alone or in combination with a CD40L transgene. After immortalization B cells are transduced with different TMG constructs encoding different numbers of 25mer polypeptides (1, 3, 12 or 40) and including LAMP1 signaling and transmembrane sequences. 96 hours post-transductions TMG-expressing B cells are enriched by antibiotic resistance selection as described in Examples 5 and 10. […]
(§2) TCR expressing Jurkat T cells specific for two NY-ESO-1 derived T cell epitopes (5B8 epitope SLLMWITQCFLPVF; SEQ ID NO: 3; MHC-class II restricted T cell epitope and 1G4 epitope SLLMWITQC; SEQ ID NO: 4; MHC-class I restricted T cell epitope) are generated as described in Examples 5 and 10. […] After co-culture, CD69 expression by TCR transduced Jurkat T cells is measured by flow cytometry.
(§3) FIG. 11A is Donor 1: NY-ESO 1G4 TCR transduced T cell reactivity towards TMG transduced BCL-6/BCL-XL immortalized B cells with or without CD40L. […] NY-ESO 1G4 TCR transduced Jurkat cells directed against one of the epitopes presented on Class I were then co-cultured with the B cells and reactivity was assessed by flowcytometry focusing on upregulation of CD69 on T cells. […]

[2] = system: NY-ESO 5B8 TCR transduced Jurkat cells; assay: as above; type: cell-based, human; settings: BCL-6/BCL-xL immortalized B cells, two donors, 20 hours
Experimental: as §1, §2, §3

B1: CD40L transgene: hCD40L transgene expressed in BCL-6/BCL-xL immortalized B cells (protein)
DNA: MIETYNQTSPRSAATGLPISMKIFMYLLTVFLITQMIGSALFAVYLHRRLDKIEDERNLHEDFVFMKTIQRCNTGERSLSLLNCEEIKSQFEGFVKDIMLNKEETKKENSFEMQKGDQNPQIAAHVISEASSKTTSVLQWAEKGYYTMSNNLVTLENGKQLTVKRQGLYYIYAQVTFCSNREASSQAPFIASLCLKSPGRFERILLRAANTHSSAKPCGQQSIHLGGVFELQPGASVFVNVTDPSQVSHGTGFTSFGLLKL
[1]
  MHC-class I antigen-presentation (CD69 expression by TCR transduced Jurkat T cells): can increase
[2]
  MHC-class II antigen presentation (CD69 expression by TCR transduced Jurkat T cells): can increase
